We go through one substance from patent US20200024330A1.

Test in all cases: cell-based or functional assay
In test [1] the target is HIV-1 Env of isolate MGRM-C-015 (HIV-1).
Test [2] concerns the target HIV-1 JR-CSF Env R480A (HIV-1 (isolate JR-CSF)) (UniProt P20871).
Test [3] addresses HIV-1 JR-CSF Env D167A (HIV-1 (isolate JR-CSF)) (UniProt P20871).
Test [4] concerns the target HIV-1 JR-CSF Env I165A (HIV-1 (isolate JR-CSF)) (UniProt P20871).
Test [5] addresses HIV-1 Env of isolate THR0.18 (HIV-1).
The target of test [6] is HIV-1 Env of isolate MGRM-AG-009 (CRF_AG), on pseudovirus (HIV-1).
For test [7], the target named is HIV-1 JR-CSF Env P470A (HIV-1 (isolate JR-CSF)) (UniProt P20871).
The target of test [8] is HIV-1 JR-CSF Env N160K (HIV-1 (isolate JR-CSF)) (UniProt P20871).
Test [9] has as its target HIV-1 JR-CSF Env N156A (HIV-1 (isolate JR-CSF)) (UniProt P20871).
The target in test [10] is HIV-1 Env of isolate MGRM-F1-010 (subtype F), on pseudovirus (HIV-1).
Test [11] has as its target HIV-1 Env of isolate MGRM-D-028 (subtype D), on pseudovirus (HIV-1).
Test [12] has as its target HIV-1 Env of isolate SF162 (HIV-1) (UniProt P19550).
The target of test [13] is HIV-1 Env of isolate MGRM-G-028 (HIV-1).
The target of test [14] is HIV-1 Env of isolate MGRM-D-003 (HIV-1).
The target of test [15] is HIV-1 Env of isolate MGRM-AG-002 (CRF_AG), on pseudovirus (HIV-1).
Test [16] concerns the target HIV-1 Env of isolate MGRM-D-020 (HIV-1).
Test [17] has as its target HIV-1 Env of isolate 97ZA012 (HIV-1).
For test [18], the target named is HIV-1 Env of isolate MGRM-C-006 (HIV-1).
For test [19], the target named is HIV-1 Env of isolate MGRM-C-014 (HIV-1).
In test [20] the target is HIV-1 Env of isolate MGRM-A-012 (clade A), on pseudovirus (HIV-1).

As to 5343_B08 (PGT-135) (antibody), the 50% inhibitory concentration (IC50) in test [1] was 0.104 µg/mL; in test [5], > 50 µg/mL; in test [12], 0.023 µg/mL; in [14], > 50 µg/mL; in test [16], > 50 µg/mL; in test [17] it was > 50 µg/mL. In addition, the IC50 in test [18] and in [19] was > 50 µg/mL throughout. The Fold IC50 increase relative to wild-type came out at 1.4 fold in test [2]; 0.7 fold in [3]; 4 fold in test [4]; 0.8 fold in test [7]; 7.7 fold in test [8]; 0.3 fold in test [9]. For the same substance, the IC50, single-round pseudovirus neutralization in test [6], in [15] and in test [20] was > 50 µg/mL in each case. The IC50, pseudovirus neutralization in test [10], in test [11] and in [13] was > 50 µg/mL each time.

Usually IC50 stands for the point on the concentration scale where inhibition reaches its midpoint. Read a low IC50 as greater potency.
